The record followed here is the DeepSol protein solubility set.

The series can be described thus: soluble on expression in E. coli; label from the status in PepcDB or PDB records.
“MGSDKIHHHHHHMNKVTINPQIQLTYQIEGKGDPIILLHGLDGNLAGFEDLQHQLASSYKVLTYDLRGHGKSSKSESYDLNDHVEDLKILMEKLNIHEAHILGHDLGGVVAKLFTDKYAYRVKSLTTIASKKDDLIHSFTQLLIQYQDDIAGFNKSEAYILLFSKLFRNQEKTMKWYQKQRIYSIKSEDDSAVAIRSLILHKDEPMYLKKRTCVPTLLINGEHDPLIKDKNHFKLEAHFLNVTKKIFEHSGHAPHIEEPEAFMNYYLNFLKSVS”: the “soluble on expression in E. coli” value was “not soluble”.

For the sequence “MGSDKIHHHHHHMNLKQLEYFMHVAELGSFSKAAMVLDVAQPALSRQVRGLETELRQQLFLRNGRGVALTEAGRRLFDHSVAIMQMVAHAREDLGASRDAPVGRVTIGLPPSIARQLTLPLIDHFKRTLPSARLAIVEGLSSHIIEWVTTGRADVGLVYNPDAQPGIEITPLLQEPLGLVSYAPPSKRRGAAAPLPFKELSKYPLIVPERVHAMRRLLENEAALAGVKLDIAWEVSSVPSIIELVCAGYGHAVLTRSGVAASPRAAELVMRPLIEPAPASALCLVVSATRRPTPLAQHSMRMLTDLVRTLPT”, the “soluble on expression in E. coli” value is reported as “not soluble”.

For “MGSDKIHHHHHHMNLSMISASVTMGELQKKLDTLSHNIANSNTTGYKRREASFSDLLFQQVNTNKATQYETGRLTPNGIRVGSGAKVSQTALRMEQGTLTTTDRALDFAIANPSSFFEIETVVDGNPVTRLTRDGAFYLTANPNNDNLLQLVTQNGDYLLDSAGNRINIPATFEEITLTDQGTLQVTMPNGANVQAAQLQLIQVMKPQLLEAVGGNMFQLPDLAALGFAENEVYAAVGAGGGAVVQGTLEGSNVDIGREMTDLIETQRNYQFNARSVSMADQMMGLVNGLRR”, the “soluble on expression in E. coli” value is “not soluble”.

As for “MGSDKIHHHHHHMNLTHRQLTMFRAIMLHGNLGRAADACASSQPTLSRELGRLEQLLGFNLFDRVRGRLRPTVRALALMQEVERSFIGLEQIAARASELRTQATGRLRIACLPALAHALVPRALVYLSHTHPELGVSVHPLESPWLEQAMSEQRFDLGLSETQKAPAGVTLQPLLKVNEVAVLPRDHSLCRKARLQPRDFTGERFISLAVGDPYRTAIDAMFEDAKVHRVTLLETTSSVAVCAMVRQGLGVAIVNPFTAMELSGPDLVVRSLTVAIGYQVNMLLPEIAAPHPLQSVLADTVRKASADLSHLDQCFY”, the “soluble on expression in E. coli” value was “not soluble”.

Take “MGSDKIHHHHHHMNNPISDDYRNLLVEVKQRIRSAQYEALKAVNKELIALYWDIGKMIVTQQQEADWGKSVVEQLAKDLQTEFPGISGFSTRNMWNMRSFYIAYSQNEKLQPLVAEIGWTHNIVILEKCKDDLEREFYLRMTRKFGWTKNVLIHQIENQTYEKTLLNQTNFNQTVPAEIRNQLKLAVKDEYTFDFLELADEHSERQLEQAILARVEPFLQEMGGRFTFVGSQYRLEIGDQEFFIDLLLYHRQLKCLVAVELKTGEFLPEYVGKMQFYLAALDDLSRLPDENLSIGIILCKSKNKTIVEYALRESNKPIGVATYKVFSSLPQDLRNQLPAPEQVAKLLEGVE”: the “soluble on expression in E. coli” value was “not soluble”.

In the case of “MGSDKIHHHHHHMNPLDLIAKRAYPYETEKRDKTYLALNENPFPFPEDLVDEVFRRLNSDALRIYYDSPDEELIEKILSYLDTDFLSKNNVSVGNGADEIIYVMMLMFDRSVFFPPTYSCYRIFAKAVGAKFLEVPLTKDLRIPEVNVGEGDVVFIPNPNNPTGHVFEREEIERILKTGAFVALDEAYYEFHGESYVDFLKKYENLAVIRTFSKAFSLAAQRVGYVVASEKFIDAYNRVRLPFNVSYVSQMFAKVALDHREIFEERTKFIVEERERMKSALREMGYRITDSRGNFVFVFMEKEEKERLLEHLRTKNVAVRSFREGVRITIGKREENDMILRELEVFK”, the “soluble on expression in E. coli” value is listed as “soluble”.

For the sequence “MGSDKIHHHHHHMNPPPFRLFLAIRSLHKGGAERQMVELAKGLDKERFALTLCTLYGGGELERELKESGVEIFCLHKRGRSDFSFLRRYRTLIQEQNPKAIYSFLPEMNLFSLMASRFLKRSPKILWGFRSSDMDVKSYGWQSRLYYAAQKLLSPFASKIITNSHHSLAYHKHIGYCMKRAQVIHNGIDTKRFSPSLELRESFRQRYHLKDKIAIGIAARMDIAKGYPYLAKAAKIILSRYPKVLFFAAGEIDPLLQKECLEILGQEGERFIWLGGVERMEEVYNGWDILVSSSLTESFSNSIAEGMACALAPIATDVGDTSVILGEVGTLIPPKDSEMLAQKLALMIESDFKTEGERARERIVTLFSLEAMIQNSTKAILTCAES”, the “soluble on expression in E. coli” value is “not soluble”.
